# Source: the supplement of paper PMC9112550, “Optimization of the antimicrobial peptide Bac7 by deep mutational scanning” (BMC Biology, 2022)
# Test system: Escherichia coli TOP10
# Test: shrunken log2 fold change of peptide-encoding DNA abundance (4.5 h post-induction vs induction); higher = less antimicrobial activity (less host growth inhibition)
# Details: time post-induction: 4.5 h; library: site-saturation at positions 5, 18, 19, 20
# 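Also: peptides expressed intracellularly from a pBAD plasmid library in pooled LB shake-flask culture, induced with 0.3% L-arabinose, DNA abundance read by NGS, three biological replicates, DESeq2 with apeglm shrinkage.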
row,Sequence,shrunken log2 fold change
1,RRIRTRPPRLPRPRPRPHIRPRP,-0.271
2,RRIRYRPPRLPRPRPRPVPGPRP,-0.151
3,RRIRVRPPRLPRPRPRPDQEPRP,-0.00136
4,RRIRQRPPRLPRPRPRPHWNPRP,-0.703
5,RRIRLRPPRLPRPRPRPWRMPRP,0.0332
6,RRIRRRPPRLPRPRPRPTLAPRP,0.939
7,RRIRMRPPRLPRPRPRPVEGPRP,-0.000687
8,RRIRMRPPRLPRPRPRPAHLPRP,0.0862
9,RRIRYRPPRLPRPRPRPLLTPRP,-0.647
10,RRIRLRPPRLPRPRPRPEMRPRP,0.0659
11,RRIRQRPPRLPRPRPRPMYFPRP,-0.448
12,RRIRVRPPRLPRPRPRPPNFPRP,0.0102
13,RRIRIRPPRLPRPRPRPFGRPRP,-0.0138
14,RRIRSRPPRLPRPRPRPNGTPRP,-0.188
15,RRIRTRPPRLPRPRPRPPLAPRP,0.65
16,RRIRIRPPRLPRPRPRPPQCPRP,-0.244
17,RRIRCRPPRLPRPRPRPFYTPRP,0.235
18,RRIRSRPPRLPRPRPRPPSCPRP,-0.0434
19,RRIRIRPPRLPRPRPRPIVAPRP,-0.119
20,RRIRPRPPRLPRPRPRPNIRPRP,-0.743
21,RRIRERPPRLPRPRPRPARVPRP,-0.505
22,RRIRFRPPRLPRPRPRPCKGPRP,0.000407
23,RRIRVRPPRLPRPRPRPFYDPRP,-0.0104

row,Sequence,shrunken log2 fold change
1,RRIRPRPPRLPRPRPRPESPPRP,0.161
2,RRIRWRPPRLPRPRPRPGDVPRP,0.0583
3,RRIRPRPPRLPRPRPRPVGTPRP,0.1
4,RRIRWRPPRLPRPRPRPWGHPRP,-0.404
5,RRIRIRPPRLPRPRPRPGSQPRP,-0.0143
6,RRIRWRPPRLPRPRPRPGEHPRP,0.232
7,RRIRSRPPRLPRPRPRPWEHPRP,0.089
8,RRIRPRPPRLPRPRPRPTEPPRP,0.179
9,RRIRCRPPRLPRPRPRPAWPPRP,0.895
10,RRIRARPPRLPRPRPRPDDTPRP,0.468
11,RRIRARPPRLPRPRPRPQTAPRP,0.188
12,RRIRERPPRLPRPRPRPAARPRP,0.226
13,RRIRLRPPRLPRPRPRPSWVPRP,-0.141
14,RRIRGRPPRLPRPRPRPPEQPRP,1.29
15,RRIRHRPPRLPRPRPRPVNWPRP,0.18
16,RRIRLRPPRLPRPRPRPDQIPRP,0.018
17,RRIRKRPPRLPRPRPRPNISPRP,-0.102
18,RRIRIRPPRLPRPRPRPQEFPRP,0.0204
19,RRIRDRPPRLPRPRPRPNVYPRP,0.0576
20,RRIRYRPPRLPRPRPRPKDGPRP,-0.613
21,RRIRHRPPRLPRPRPRPQAWPRP,0.00326
22,RRIRDRPPRLPRPRPRPDREPRP,-0.0481
23,RRIRQRPPRLPRPRPRPGEFPRP,0.313

row,Sequence,shrunken log2 fold change
1,RRIRFRPPRLPRPRPRPMQAPRP,0.119
2,RRIRIRPPRLPRPRPRPNFPPRP,-0.144
3,RRIRVRPPRLPRPRPRPVNYPRP,0.0937
4,RRIRLRPPRLPRPRPRPNMKPRP,-0.173
5,RRIRPRPPRLPRPRPRPIGPPRP,0.162
6,RRIRIRPPRLPRPRPRPADVPRP,-0.134
7,RRIRIRPPRLPRPRPRPSKDPRP,-1.02
8,RRIRWRPPRLPRPRPRPPAGPRP,0.83
9,RRIRLRPPRLPRPRPRPGRCPRP,0.341
10,RRIRERPPRLPRPRPRPHNDPRP,-0.335
11,RRIRLRPPRLPRPRPRPLKYPRP,-0.0803
12,RRIRFRPPRLPRPRPRPSGQPRP,-0.204
13,RRIRSRPPRLPRPRPRPLIWPRP,0.312
14,RRIRDRPPRLPRPRPRPCRNPRP,-0.000921
15,RRIRWRPPRLPRPRPRPECCPRP,1.22
16,RRIRCRPPRLPRPRPRPQCVPRP,-0.0975
17,RRIRMRPPRLPRPRPRPKVKPRP,0.614
18,RRIRSRPPRLPRPRPRPMVLPRP,0.114
19,RRIRERPPRLPRPRPRPQFPPRP,-0.253
20,RRIRIRPPRLPRPRPRPNFVPRP,0.0196
21,RRIRTRPPRLPRPRPRPRIVPRP,-0.0873
22,RRIRGRPPRLPRPRPRPYKQPRP,0.025
23,RRIRWRPPRLPRPRPRPVIGPRP,0.183

row,Sequence,shrunken log2 fold change
1,RRIRMRPPRLPRPRPRPYSYPRP,0.0871
2,RRIRERPPRLPRPRPRPGAKPRP,0.188
3,RRIRMRPPRLPRPRPRPTWQPRP,0.288
4,RRIRCRPPRLPRPRPRPQEGPRP,-0.0193
5,RRIRARPPRLPRPRPRPVTYPRP,-0.265
6,RRIRMRPPRLPRPRPRPNPNPRP,0.394
7,RRIRARPPRLPRPRPRPIFEPRP,0.125
8,RRIRQRPPRLPRPRPRPQMLPRP,0.0203
9,RRIRIRPPRLPRPRPRPCNGPRP,-0.0882
10,RRIRYRPPRLPRPRPRPIVPPRP,0.0202
11,RRIRNRPPRLPRPRPRPGVMPRP,-0.141
12,RRIRSRPPRLPRPRPRPWPPPRP,0.51
13,RRIRARPPRLPRPRPRPAYNPRP,0.0748
14,RRIRLRPPRLPRPRPRPFTEPRP,-0.163
15,RRIRARPPRLPRPRPRPIYGPRP,0.0455
16,RRIRIRPPRLPRPRPRPQEHPRP,-0.0111
17,RRIRFRPPRLPRPRPRPACSPRP,0.0139
18,RRIRLRPPRLPRPRPRPICFPRP,0.104
19,RRIRPRPPRLPRPRPRPQFEPRP,0.0184
20,RRIRRRPPRLPRPRPRPPCRPRP,1.09
21,RRIRLRPPRLPRPRPRPDLFPRP,-0.000844
22,RRIRMRPPRLPRPRPRPDSRPRP,-0.00783
